Results as given in patent publication US20110059504A1 (GENERAL HOSPITAL, published 2011).

T1: human myostatin (human, UniProt O14793 267-375, biotinylated in selections and radioactive assays (site not stated))
T1 construct: Phage ELISA used both unbiotinylated and biotinylated myostatin; also called biotinylated human myostatin; myostatin-biotin
T1 sequence (looked up): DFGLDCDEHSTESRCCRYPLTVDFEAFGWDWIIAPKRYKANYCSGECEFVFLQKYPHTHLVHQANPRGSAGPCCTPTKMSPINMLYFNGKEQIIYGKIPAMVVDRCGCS


What follows are binders tested against T1, human myostatin (assay: radioactive equilibrium binding assay).
Protocol: Affinities of selected F13β2 binders to biotinylated myostatin were determined in radioactive equilibrium binding assay (FIGS. 11A and 11B; Table 3). ³⁵S-labeled binder proteins from selection pools and single clones were produced in vitro in a rabbit reticulocyte lysate translation kit (Ambion) and purified on M2-agarose (Sigma). Varying concentrations of biotinylated human myostatin (0-100 nM) or other proteins (protein 1: 100 nM; peptide 1: 250 nM; protein 2: 50 nM) were incubated with a constant concentration of the purified binder protein (1 or 2 nM) at 30° C. for 30 min in buffer B (1×PBS, 0.02% Triton X-100 [pH 7.4]). The receptor-binder complexes were captured by using 25 μl of M280 or Protein A (Dynal) (protein 2) magnetic beads for 10 min at room temperature on a Kingfisher instrument (Thermo Fisher Scientific). The beads were washed five times with 100 μl buffer B, and the amount of ³⁵S-methionine remained on the beads was measured by scintillation counting. Data were analyzed by using the GraphPad Prism software (GraphPad Software, Inc., San Diego, Calif.), fitted with a one-site, nonlinear binding equation. For inhibition assay the binding of ³⁵S-labeled proteins to 20 or 25 nM of biotinylated human myostatin was performed in the presence of varying concentrations of inhibitor (human activin receptor IIB/Fc chimera (R&D Systems, Minneapolis, Minn.) (0-250 nM); protein 1 (100 nM), peptide 1 (250 nM), protein 2 (50 nM); proteins, produced in E. coli, M17, M7, M29, M21, M1-1, WT F13β2 (500 nM)).

Row | Binder | B max [%] | Kd [nM]
1 | 39633-C1 (designed binder, group M1-A50; V91L; also called M17 (clone ID)) MTIPEIIIKVRGTQVVGSDMTVIVEFTNPFKETLRSVWVHLDGPGVTRPMKKMFREIPPKTTVQWEEVVRPWVSGHRKLIASMRTQYLIHLYGELDVQIQRRDYKDDDDK | 74.8 | 39.9
2 | 39633-G5 (designed binder, group M1-A50; V91L) MTIPEIIIKVRGTQVVGSDMTVIVEFTNPFKETLRSVWVHLDGPGVTRPMKKMFSEIRPNSTVQWEEVVRPWVSGHRKLIASMRTQYLIHLYGELDVQIQRRDYKDDDDK | 64.1 | 33.6
3 | 39973-D2 (designed binder, group M3-A) MTIPEIIIKVRGTQVVGSDMTVIVEFYFSPGARLATVWVHLDGPGVTRPMKKMFHSIYVPFWVQWEEVVRPWVSGHRKLIASMTTTVQGHVYGELDVQIQRRDYKDDDDK | 7.66 | 32.9
4 | 39885-A1 (designed binder, group M1-A; also called M1-1 (clone ID)) MTIPEIIIKVRGTQVVGSDMTVIVEFTNPLKETLRNVWVHLDGPGVTRPMKKMFPAIPMNHKVQWEEVVRPWVSGHRKLIASMPQLFHIHVYGELDVQIQRRDYKDDDDK | 67.3 | 21.8
5 | 39885-B5 (F26V) (designed binder, group M1-A; F26V; also called M2-1 (clone ID)) MTIPEIIIKVRGTQVVGSDMTVIVEVTNPLKETLRNVWVHLDGPGVTRPMKKMFPAIPMNHKVQWEEVVRPWVSGHRKLIASMPQLFHIHVYGELDVQIQRRDYKDDDDK | 72.2 | 25.1
6 | 39885-G5 (designed binder, group M1-A; also called M8-L (clone ID)) MTIPEIIIKVRGTQVVGSDMTVIVEFTNPLKETLRNVWVHLDGPGVTRPMKKMFPAIPYLSYVQWEEVVRPWVSGHRKLIASMPQLHHLHVYGELDVQIQRRDYKDDDDK | 59.4 | 28.5
7 | 39888-B7 (designed binder, group M3-A) MTIPEIIIKVRGTQVVGSDMTVIVEFTNPLKETLRNVWVHLDGPGVTRPMKKMFPAIPMNHKVQWEEVVRPWVSGHRKLIASMNSSSNQHVYGELDVQIQRRDYKDDDDK | 1.19 | 7.09
8 | 39973-F10 (designed binder, group M1-A) MTIPEIIIKVRGTQVVGSDMTVIVEFTNPLKETLRNVWVHLDGPGVTRPMKKMFATIPPYLPVQWEEVVRPWVSGHRKLIASMPQLIHLHVYGELDVQIQRRDYKDDDDK | 68 | 28.6
9 | 39908-G12 (designed binder, group M2-A50; also called M10 (clone ID)) MTIPEIIIKVRGTQVVGSDMTVIVEFTNPFKETLRSVWVHLDGPGVTRPMKKMFSEIRPNSTVQWEEVVRPWVSGHRKLIASMPSLLHLHVYGELDVQIQRRDYKDDDDK | 34.1 | 25.6
10 | 39885-D8 (K9R) (designed binder, group M1-A; K9R; also called M5-2 (clone ID)) MTIPEIIIRVRGTQVVGSDMTVIVEFTNPLKETLRNVWVHLDGPGVTRPMKKMFPAIPMDHKVQWEEVVRPWVSGHRKLIASMPQLFHIHVYGELDVQIQRRDYKDDDDK | 57.6 | 24.7
11 | 39885-F10 (S82C) (designed binder, group M1-A; S82C) MTIPEIIIKVRGTQVVGSDMTVIVEFTNPLKETLRNVWVHLDGPGVTRPMKKMFPAIPMNHKVQWEEVVRPWVSGHRKLIACMPQLFHIHVYGELDVQIQRRDYKDDDDK | 73.7 | 15.4
12 | 39885-C7 (designed binder, group M1-A; also called M3-1 (clone ID)) MTIPEIIIKVRGTQVVGSDMTVIVEFTNPLKETLRNVWVHLDGPGVTRPMKKMFRAIPMNHKVQWEEVVRPWVSGHRKLIASMPQLFHIHVYGELDVQIQRRDYKDDDDK | 68.4 | 17.4
13 | 39633-H6 (M50V) (designed binder, group M2-A50; M50V) MTIPEIIIKVRGTQVVGSDMTVIVEFTNPFKETLRSVWVHLDGPGVTRPVKKMFREIPPKTTVQWEEVVRPWVSGHRKLIASMPSLLHLHVYGELDVQIQRRDYKDDDDK | 61.6 | 24.8
14 | 39885-G8 (designed binder, group M1-A; also called M10-3 (clone ID)) MTIPEIIIKVRGTQVVGSDMTVIVEFTNPLKETLRNVWVHLDGPGVTRPMKKMFPTIPMNHKVQWEEVVRPWVSGHRKLIASMPQLFHIHVYGELDVQIQRRDYKDDDDK | 69.2 | 30.8
15 | 39633-D3 (V39M) (designed binder, group M2-A50; V39M) MTIPEIIIKVRGTQVVGSDMTVIVEFSNPFKETLRNVWMHLDGPGVTRPMKKMFSEIRPNSTVQWEEVVRPWVSGHRKLIASMPSLLHLHVYGELDVQIQRRDYKDDDDK | 65.8 | 26.2
16 | 39633-A1 (designed binder, group M4-A50) MTIPEIIIKVRGTQVVGSDMTVIVEFTNPFKETLRSVWVHLDGPGVTRPMKKMFREIPPNTTVQWEEVVRPWVSGHRKLIASMPTHHLLHVYGELDVQIQRRDYKDDDDK | 63.9 | 25.5
17 | 39885-D11 (designed binder, group M2-A) MTIPEIIIKVRGTQVVGSDMTVIVEFTNPLKETLRNVWVHLDGPGVTRPMKKMFPAIPMNHKVQWEEVVRPWVSGHRKLIASMINHFYKHVYGELDVQIQRRDYKDDDDK | 22.3 | 41
18 | 39973-C10 (designed binder, group M1-A) MTIPEIIIKVRGTQVVGSDMTVIVEFTNPLKETLRNVWVHLDGPGVTRPMKKMFPTISRFKRVQWEEVVRPWVSGHRKLIASMPQLQHLHVYGELDVQIQRRDYKDDDDK | 72 | 22.8
19 | 39633-D2 (designed binder, group M2-A50) MTIPEIIIKVRGTQVVGSDMTVIVEFTNLMKETLRNVWVHLDGPGVTRPMKKMFSEIRPNSTVQWEEVVRPWVSGHRKLIASMPSLLHLHVYGELDVQIQRRDYKDDDDK | 6.74 | 11.2
20 | 39885-F7 (designed binder, group M1-A) MTIPEIIIKVRGTQVVGSDMTVIVEFTNPLKETLRNVWVHLDGPGVTRPMKKMFPTIPMNHKVQWEEVVRPWVSGHRKLIASMPHLFHIHVYGELDVQIQRRDYKDDDDK | 62.7 | 24.1
21 | 39885-C1 (designed binder, group M2-A) MTIPEIIIKVRGTQVVGSDMTVIVEFTNPLKETLRNVWVHLDGPGVTRPMKKMFPAIPMNHKVQWEEVVRPWVSGHRKLIASMLNHFYKHVYGELDVQIQRRDYKDDDDK | 33.3 | 140
22 | 39908-G4 (designed binder, group M2-A50; also called M7 (clone ID)) MTIPEIIIKVRGTQVVGSDMTVIVEFSNPFKETLRNVWVHLDGPGVTRPMKKMFSEIRPNSTVQWEEVVRPWVSGHRKLIASMPSLLHLHVYGELDVQIQRRDYKDDDDK | 49 | 28.4
23 | 39908-H10 (designed binder, group M2-A50; also called M4 (clone ID)) MTIPEIIIKVRGTQVVGSDMTVIVEFTNPFKETLRSVWVHLDGPGVTRPMKKMFREIPPKTTVQWEEVVRPWVSGHRKLIASMPSLLHLHVYGELDVQIQRRDYKDDDDK | 47.3 | 29.7
24 | 39888-G5 (S82I) (designed binder, group M1-A; S82I) MTIPEIIIKVRGTQVVGSDMTVIVEFTNPLKETLRNVWVHLDGPGVTRPMKKMFPAIPMNHKVQWEEVVRPWVSGHRKLIAIMPQLFHIHVYGELDVQIQRRDYKDDDDK | 83.1 | 9.99
25 | 39633-E4 (designed binder, group M2-A50; also called M019 (clone ID)) MTIPEIIIKVRGTQVVGSDMTVIVEFSNPFKETLRNVWVHLDGPGVTRPMKKMFSEIRPDSTVQWEEVVRPWVSGHRKLIASMPSLLHLHVYGELDVQIQRRDYKDDDDK | 60 | 27.8
26 | 39885-H9 (designed binder, group M2-A) MTIPEIIIKVRGTQVVGSDMTVIVEFTNPLKETLRNVWVHLDGPGVTRPMKKMFPAIPMNHKVQWEEVVRPWVSGHRKLIASMINYFYNHVYGELDVQIQRRDYKDDDDK | 24.1 | 14.1
27 | 39885-C11 (designed binder, group M2-A) MTIPEIIIKVRGTQVVGSDMTVIVEFTNPLKETLRNVWVHLDGPGVTRPMKKMFPAIPMNHKVQWEEVVRPWVSGHRKLIASMINYFYKHVYGELDVQIQRRDYKDDDDK | 18.8 | 41.6
28 | 39885-F8 (designed binder, group M1-A; also called M7-L (clone ID)) MTIPEIIIKVRGTQVVGSDMTVIVEFTNPLKETLRNVWVHLDGPGVTRPMKKMFPAIPMNHKVQWEEVVRPWVSGHRKLIASMPQLFHLHVYGELDVQIQRRDYKDDDDK | 98.6 | 28.1
29 | 39888-A11 (D42N) (designed binder, group M1-A; D42N; also called M14-1 (clone ID); 39888-All(D42N)) MTIPEIIIKVRGTQVVGSDMTVIVEFTNPLKETLRNVWVHLNGPGVTRPMKKMFPAIPMNHKVQWEEVVRPWVSGHRKLIASMPQLFHIHVYGELDVQIQRRDYKDDDDK | 82.4 | 13.6
